In JP2012055312A one finds percent inhibition of IL-6 binding to IL-6 receptor data, which are given here for one molecule.

The experiment has as its target ビオチン−IL−6 (UniProt P05231). The experiment is described as follows: Luminex-based assay of IL-6 binding to IL-6 receptor (solid-phase sIL-6R/gp80).
Chain of UniProt P05231 (P05231 30-212 limits assumed): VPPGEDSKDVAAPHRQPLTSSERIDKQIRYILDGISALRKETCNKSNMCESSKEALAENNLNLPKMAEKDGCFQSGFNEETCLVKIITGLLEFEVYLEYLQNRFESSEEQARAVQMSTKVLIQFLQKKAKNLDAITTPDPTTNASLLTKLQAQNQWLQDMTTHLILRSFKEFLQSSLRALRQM

B1: キメラCLB8 (antibody, V domains shown)
VH: EVQLVESGGKLLKPGGSLKLSCAASGFTFSSFAMSWFRQSPEKRLEWVAEISSGGSYTYYPDTVTGRFTISRDNAKNTLYLEMSSLRSEDTAMYYCARGLWGYYALDYWGQGTSVTVSS
VL: QIVLIQSPAIMSASPGEKVTMTCSASSSVSYMYWYQQKPGSSPRLLIYDTSNLASGVPVRFSGSGSGTSYSLTISRMEAEDAATYYCQQWSGYPYTFGGGTKLEIK
As for B1, the percent inhibition of IL-6 binding to IL-6 receptor came to 100%.
